Measured values from patent US20240182536A1 (MURAL ONCOLOGY, published 2024).
Numbering of substitutions follows the chain as printed. In names and notes the source's numbering stands. Where two headings read alike, the source gives them in different places.

B1: human IL-18 variant G3V/K53S/M60K (ligand)
chain: YFVKLESKLSVIRNLNDQVLFIDQGNRPLFEDMTDSDMRDNAPRTIFIISMYSDSQPRGKAVTISVKSEKISTLSSENKIISFKEMNPPDNIKDTKSDIIFFQRSVPGHDNKMQFESSSYEGYFLASEKERDLFKLILKKEDELGDRSIMFTVQNED
B2: IL-18 variant G3R, N91M, K53S (ligand)
chain: B1 chain with V3R, K60M, N91M
notes: also called G3R/K53S/N91M
B3: IL-18 variant G3T, K53S (ligand)
chain: B1 chain with V3T, K60M
B4: IL-18 variant G3H, N91V, K53S (ligand)
chain: B1 chain with V3H, K60M, N91V
notes: also called G3H/K53S/N91V
B5: IL-18 variant G3F, K53S (ligand)
chain: B1 chain with V3F, K60M
B6: IL-18 variant G3T, E6K, K53A (ligand)
chain: B1 chain with V3T, E6K, S53A, K60M
notes: also called G3T, K53A, E6K
B7: IL-18 variant G3R, N91W, K53A (ligand)
chain: B1 chain with V3R, S53A, K60M, N91W
notes: also called G3R/K53A/N91W

Legend:
IL-18 receptor alpha = biological target: T1, IL-18 receptor alpha (UniProt Q13478 19-329, limits assumed); assay: Octet BLI
T1 construct: also called IL-18 Rα; IL-18Rα
T1 sequence (looked up): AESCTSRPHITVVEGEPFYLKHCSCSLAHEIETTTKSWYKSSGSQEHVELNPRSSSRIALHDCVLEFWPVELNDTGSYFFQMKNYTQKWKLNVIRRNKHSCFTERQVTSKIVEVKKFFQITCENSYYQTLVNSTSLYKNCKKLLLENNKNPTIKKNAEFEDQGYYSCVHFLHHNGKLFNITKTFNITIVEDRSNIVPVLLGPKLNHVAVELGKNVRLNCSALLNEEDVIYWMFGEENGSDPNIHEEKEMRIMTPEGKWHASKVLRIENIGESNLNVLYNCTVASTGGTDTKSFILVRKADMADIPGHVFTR
Description: (§1) Octet 96red instrument was used to determine affinities of IL18 proteins to BP or receptors. 5-10 ug/ml analyte proteins were used for loading on Sartorius tips (AHC or SA). […] 120-180 s loading, 200 s association and 800 s dissociation were used for kinetics. 3-7 data points were used to calculate affinities.
Additional IL-18 variants were generated and tested based on the results above with G3 variants, E6 variants, K53 variants, and M60 variants. The new variants were first tested for binding to IL-18Rα and IL-18BP by octet, as described above.

[1] = biological target: T2, human IL-18 binding protein (human, UniProt O95998 31-194); assay: cell-based or functional assay
T2 sequence (looked up): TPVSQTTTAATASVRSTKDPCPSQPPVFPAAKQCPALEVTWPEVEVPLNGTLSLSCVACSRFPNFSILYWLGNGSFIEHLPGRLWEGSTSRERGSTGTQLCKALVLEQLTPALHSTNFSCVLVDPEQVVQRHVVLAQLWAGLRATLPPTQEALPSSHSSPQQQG

[2] = biological target: T3, IL-18 receptors on HEK-Blue IL-18 reporter cells (UniProt Q13478 19-541; O95256 20-599, limits assumed); assay: cell-based or functional assay
T3 sequence (looked up) 1: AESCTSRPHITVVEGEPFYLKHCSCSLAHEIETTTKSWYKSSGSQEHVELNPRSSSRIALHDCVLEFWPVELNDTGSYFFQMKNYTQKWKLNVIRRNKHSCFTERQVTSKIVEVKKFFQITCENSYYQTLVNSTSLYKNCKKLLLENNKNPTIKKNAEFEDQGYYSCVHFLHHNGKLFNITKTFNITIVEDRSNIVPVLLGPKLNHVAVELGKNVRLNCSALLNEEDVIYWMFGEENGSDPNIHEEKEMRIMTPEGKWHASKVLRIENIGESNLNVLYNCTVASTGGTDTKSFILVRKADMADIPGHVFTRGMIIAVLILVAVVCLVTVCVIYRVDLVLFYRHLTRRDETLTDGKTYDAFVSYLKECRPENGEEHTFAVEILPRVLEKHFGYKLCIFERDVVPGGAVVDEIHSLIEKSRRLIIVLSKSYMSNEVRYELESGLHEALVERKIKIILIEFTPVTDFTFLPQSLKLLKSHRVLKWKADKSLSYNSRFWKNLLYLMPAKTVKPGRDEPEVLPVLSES
T3 sequence (looked up) 2: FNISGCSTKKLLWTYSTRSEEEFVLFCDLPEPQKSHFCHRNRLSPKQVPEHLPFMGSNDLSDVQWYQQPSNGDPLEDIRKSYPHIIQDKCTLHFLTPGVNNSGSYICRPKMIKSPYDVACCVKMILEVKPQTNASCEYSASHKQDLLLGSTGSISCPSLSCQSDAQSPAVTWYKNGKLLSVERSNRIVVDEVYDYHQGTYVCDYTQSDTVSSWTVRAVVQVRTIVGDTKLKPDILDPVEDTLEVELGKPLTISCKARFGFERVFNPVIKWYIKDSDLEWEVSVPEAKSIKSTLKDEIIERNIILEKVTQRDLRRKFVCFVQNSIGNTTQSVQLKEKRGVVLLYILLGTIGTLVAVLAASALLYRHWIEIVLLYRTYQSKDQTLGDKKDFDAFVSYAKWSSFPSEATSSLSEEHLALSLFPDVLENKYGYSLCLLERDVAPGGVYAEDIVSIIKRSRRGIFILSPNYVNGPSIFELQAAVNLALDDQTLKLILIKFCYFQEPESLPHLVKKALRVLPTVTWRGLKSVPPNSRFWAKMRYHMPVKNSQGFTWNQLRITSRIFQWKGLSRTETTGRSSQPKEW

[3] = biological target: T2, human IL-18 binding protein; assay: cell-based or functional assay; remark: listed apart in the source
[4] = biological target: T3, IL-18 receptors on HEK-Blue IL-18 …; assay: cell-based or functional assay; remark: listed apart in the source
[5] = biological target: T4, human IL-18 binding protein (IL-18BP) (human, UniProt O95998 31-194); assay: Octet BLI
T4 construct: also called hu IL-18BP; hIL18BP
T4 sequence (looked up): T2 sequence (looked up)
Description: as §1
Select G3/K53-substitution containing IL-18 variants and select G3/K53/N91-substitution containing TL-18 variants were tested for activity in the HEK-blue activity assay and for binding affinity to IL-18BP. As shown in the data of Table 15 and Table 16 below, each variant had similar or better activity than WT IL-18, and retained substantial activity in the presence of IL-18BP.

[6] = biological target: T5, IL-18 receptor (IL-18Rα and IL-18Rβ) (UniProt Q13478 19-541; O95256 20-599, limits assumed); assay: cell-based or functional assay
T5 sequence (looked up) 1: T3 sequence (looked up) 1
T5 sequence (looked up) 2: T3 sequence (looked up) 2

[7] = biological target: T4, human IL-18 binding protein (IL-18BP); assay: cell-based or functional assay
[8] = biological target: T6, IL-18 receptors on HEK-Blue IL-18 reporter cells (InvivoGen) (UniProt Q13478 19-541; O95256 20-599); assay: cell-based or functional assay
T6 sequence (looked up) 1: T3 sequence (looked up) 1
T6 sequence (looked up) 2: T3 sequence (looked up) 2

[9] = biological target: T4, human IL-18 binding protein (IL-18BP); assay: cell-based or functional assay; remark: listed apart in the source
[10] = biological target: T6, IL-18 receptors on HEK-Blue IL-18 …; assay: cell-based or functional assay; remark: listed apart in the source
[11] = biological target: T4, human IL-18 binding protein (IL-18BP); assay: Octet BLI; remark: listed apart in the source
Description: as §1

[12] = biological target: T7, human IL-18R alpha/beta pair (IL-18Rab) (human, UniProt Q13478 19-329; O95256 20-356); assay: Octet BLI
T7 construct: also called hu IL-18Rab
T7 sequence (looked up) 1: T1 sequence (looked up)
T7 sequence (looked up) 2: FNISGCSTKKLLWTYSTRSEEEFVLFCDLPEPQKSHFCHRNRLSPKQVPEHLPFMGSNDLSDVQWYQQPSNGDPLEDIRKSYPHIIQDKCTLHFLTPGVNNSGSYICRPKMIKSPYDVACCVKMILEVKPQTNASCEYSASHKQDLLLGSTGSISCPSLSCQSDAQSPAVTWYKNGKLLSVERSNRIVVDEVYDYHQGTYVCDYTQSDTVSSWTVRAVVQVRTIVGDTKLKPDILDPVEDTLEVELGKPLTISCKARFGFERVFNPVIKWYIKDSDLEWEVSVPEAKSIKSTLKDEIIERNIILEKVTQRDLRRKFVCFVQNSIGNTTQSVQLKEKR
Description: as §1

[13] = biological target: T8, human IL-18 receptor alpha (IL-18Rα) (human, UniProt Q13478 19-329, limits assumed); assay: Octet BLI
T8 construct: also called hu IL-18Ra; IL-18R alpha
T8 sequence (looked up): T1 sequence (looked up)
Description: as §1

[14] = biological target: T4, human IL-18 binding protein (IL-18BP); assay: cell-based or functional assay; remark: listed apart in the source
[15] = biological target: T6, IL-18 receptors on HEK-Blue IL-18 …; assay: cell-based or functional assay; remark: listed apart in the source
[16] = biological target: T4, human IL-18 binding protein (IL-18BP); assay: cell-based or functional assay; remark: listed apart in the source
[17] = biological target: T6, IL-18 receptors on HEK-Blue IL-18 …; assay: cell-based or functional assay; remark: listed apart in the source

Binder | Kd [5] [nM] | koff [5] [s⁻¹] | kon [5] [M⁻¹ s⁻¹] | EC50 pM, IFN gamma expression in PBMCs [6] [pM] | HEK-Blue Ec50 (pM), +IL-18BP (50 nM) [7] [pM] | HEK-Blue Ec50 (pM), -IL-18BP [8] [pM] | also measured
B1 | – | – | – | – | – | – | Kd (IL-18 receptor alpha): 5310 nM; HEK-blue EC50 (pM) + 300 nM BP [1]: 2.18 pM; HEK-blue EC50 (pM) - BP [2]: 2.11 pM; HEK-blue EC50 (pM) + 1000 nM BP [3]: 2.61 pM; HEK-blue EC50 (pM) - BP [4]: 0.021 pM
B2 | 3.3 | 0.000735 | 223000 | 73.9 | 2.16 | 0.12 | –
B3 | 18 | 0.00474 | 263000 | 368 | – | – | HEK-Blue Ec50 (pM), +IL-18BP (50 nM) [9]: 5.18 pM; HEK-Blue Ec50 (pM), -IL-18BP [10]: 2.5 pM
B4 | 8.6 | 0.0031 | 359000 | 222 | 2.51 | 0.94 | –
B5 | 11.8 | 0.0048 | 408000 | – | – | – | HEK-Blue Ec50 (pM), +IL-18BP (50 nM) [9]: 5.88 pM; HEK-Blue Ec50 (pM), -IL-18BP [10]: 3.39 pM
B6 | – | – | – | – | – | – | Kd [11]: 6 nM; Kd [12]: 0.32 nM; Kd [13]: 10 nM; HEK-Blue Activity Assay Ec50 (pM), +300 nM hu IL-18BP [14]: 1.49 pM; HEK-Blue Activity Assay Ec50 (pM), -hu IL-18BP [15]: 0.04 pM; Fold Change (BP/NO BP), 50 nM BP [16]: 2.79 fold; Fold Change (BP/NO BP), 300 nM BP [16]: 35.2 fold; HEK-Blue EC50 pM, +50 nM BP [16]: 0.14 pM; HEK-blue EC50 (pM) + 300 nM BP [16]: 1.49 pM; HEK-Blue EC50 pM, NO BP (50 nM BP run) [17]: 0.05 pM; HEK-Blue EC50 pM, NO BP (300 nM BP run) [17]: 0.04 pM
B7 | 1 | 0.000185 | 185000 | 49.8 | 4.22 | 0.04 | –
